Positions count from the first letter of the chain named.
T1: murine tissue factor (TF) on transfected HEK293F cells (murine, UniProt P20352 29-294)
T1 construct: whole, on cells; also called murine TF; TFmm
T1 sequence (looked up): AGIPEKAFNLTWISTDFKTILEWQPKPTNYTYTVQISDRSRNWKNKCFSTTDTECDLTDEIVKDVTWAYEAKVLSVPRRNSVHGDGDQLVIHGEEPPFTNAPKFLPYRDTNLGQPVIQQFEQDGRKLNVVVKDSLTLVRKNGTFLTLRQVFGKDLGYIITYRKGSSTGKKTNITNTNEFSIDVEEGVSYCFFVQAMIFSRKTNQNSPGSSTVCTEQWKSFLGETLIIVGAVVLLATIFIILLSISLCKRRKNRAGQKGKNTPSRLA

B1: anti-TF HuMab 087-Lg6 (antibody, V domains shown)
VH: EVQLVQSGAEVKKPGESLKISCKGSGYSFTSCWIGWVRQMPGKGLEWMGIIYPGDSDTRYSPSFQGQVTISADKSISTAYLQWSSLKASDTAMYYCARHKLGMDHDAFDIWGQGTMVTVSS
VL: DIQMTQSPSSLSASVGDRVTITCRASQGISSWLAWYQQKPEKAPKSLIYAASSLQSGVPSRFSGSGSGTDFTLTISSLQPEDFATYYCQQYNSYPPTFGQGTTVEVK
notes: Human monoclonal antibody from HuMab mice
B2: anti-TF HuMab 092-A09 (antibody, V domains shown)
VH: EVQLLESGGGLVQPGGSLRLSCAASGFTFNNYAMSWVRQAPGKGLEWVSSISGSGGRTYYADSVKGRFTISRDNSKNTLFLQMNSLRAEDTAVYYCAKTPWGYYFDYWGQGTLVTVSS
VL: B1 VL with W32R, P96Y, T103K, V104L, V106I
notes: as for B1

Key:
[1] = target: T2, human tissue factor (TF), membrane-bound on cells (human, UniProt P13726 33-295); experiment: FACS, Bx-PC3 cells
T2 construct: whole, on cells; also called cellular TF
Outline: (§1)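 Cell binding of titrated HuMabs, measured on ice by flow cytometry with PE anti-human IgGFc detection. Controls: HuMab-KLH (negative) and mouse anti-TF with PE anti-mouse IgGFc (positive).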

[2] = target: T2, human tissue factor (TF), …; experiment: FACS, MDA-MB-231 cells
Outline: as §1

[3] = target: T2, human tissue factor (TF), …; experiment: cell-based or functional assay
[4] = target: T2, human tissue factor (TF), …; experiment: FACS, Bx-PC3 cells, 30 µg/mL
Outline: as §1

[5] = target: T2, human tissue factor (TF), …; experiment: FACS, MDA-MB-231 cells, 30 µg/mL
Outline: as §1

[6] = target: T3, TFECDHis (extracellular domain of tissue factor, amino acid 1-251, with C-terminal His tag) (human, UniProt P13726 33-251); experiment: ELISA, coated TFECDHis, mean of 3
T3 construct: range 1-251; The stated range 1-251 starts at residue 1 of NP-001984; also called extracellular domain of TF
Outline: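 Plates coated overnight at +4° C with 0.5 μg/mL TFECDHis in PBS pH 7.4, blocked with 2% chicken serum. Serially diluted HuMabs bound 1 h at RT with shaking, detected with HRP anti-human IgG. Binding curves fitted by sigmoidal dose-response with variable slope; anti-KLH HuMab served as negative control.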

[7] = target: T3, TFECDHis (extracellular domain of …); experiment: SPR BIAcore 3000, HuMab immobilized, TFECDHis analyte
Procedure: (§2) Antibody binding to TF was analyzed by surface plasmon resonance in a BIAcore 3000 (GE Healthcare). TFECDHis was used for the analysis. HuMab antibodies (500 resonance units) were immobilized on the CM-5 sensor chip according to the procedure recommended by the manufacturer. Briefly, after surface activation by EDC and NHS HuMab antibody was injected over the activated CM-5 surface in 10 mM sodium-acetate, pH ranging from 4.0 to 5.5 at 5 μl/min. followed by 1 M Ethanolamine for deactivation. Concentration series of TFECDHis in HBS-EP buffer were injected over the immobilized antibodies at a flow rate of 30 μl/min for 180 sec. Regeneration of the HuMab surface was performed by injection of 10 mM Glycine-HCl pH 2.0 or 10 mM sodium acetate pH 3.0. Kinetic analysis was performed using double reference subtraction and model 1:1 (langmuir) binding analysis.

[8] = target: T3, TFECDHis (extracellular domain of …); experiment: competition ELISA, inhibition of FVIIa (100 nM) binding to coated TFECDHis
Procedure: ELISA plates were coated overnight with TFECDHis (0.5 μg/mL, 100 μL per well). Plates were emptied, blocked with PBS containing 2% (v/v) chicken serum (1 hour, RT), and emptied again. […] Plates were washed and incubated with swine-anti-rabbit IgG-HRP antibody (1:2,500; DAKO). After washing, the immune complexes were visualized using ABTS as a substrate.

[9] = target: T1, murine tissue factor (TF) on …; experiment: FACS on transfected HEK293F cells, 30 µg/mL antibody [panel I]
[10] = target: T3, TFECDHis (extracellular domain of …); experiment: SPR BIAcore 3000, HuMab immobilized, TFECDHis analyte; footnote: n.a. not assessable = >10^-3 sec^-1
Procedure: as §2

[11] = target: T2, human tissue factor (TF), …; experiment: FACS, A431 cells
Outline: as §1

TF (Innovin) = TF (Innovin) (UniProt P13726 33-295, limits assumed); experiment: cell-based or functional assay
[12] = target: T2, human tissue factor (TF), …; experiment: FACS, A431 cells, 30 µg/mL
Outline: as §1

[13] = target: T2, human tissue factor (TF), …; experiment: FACS, TF transfected CHO cells (S1015-TF)
Outline: as §1

[14] = target: T2, human tissue factor (TF), …; experiment: FACS, TF transfected CHO cells (S1015-TF), 7.5 µg/mL
Outline: as §1

[15] = target: T1, murine tissue factor (TF) on …; experiment: FACS on transfected HEK293F cells, 30 µg/mL antibody [panel J]

Binder | EC50 [1] [nM] | EC50 [2] [nM] | max inhibition of FVIIa induced IL-8 release (MDA-MB-231) [3] [%] | Max MFI [4] | Max MFI [5] | EC50 [6] [nM] | kon [7] [M⁻¹ s⁻¹] | max inhibition [8] [%] | binding result [9] | koff [10] [s⁻¹] | EC50 [11] [nM] | IC50, inhibition of blood coagulation (TF induced clotting time) (TF (Innovin)) [nM] | Max MFI [12] | EC50 [13] [nM] | Max MFI [14] | Kd [7] [nM] | binding result [15]
B1 | 7.19 | 8.28 | 4.3 | 1030 | 1110 | 0.09 | 591000 | 35 | no binding (tested: 30 µg/mL) | > 0.001 |  |  |  |  |  |  | 
B2 | 0.84 | 0.53 |  | 1260 | 2290 | 0.18 |  | 90 |  |  | 0.83 | 0.2 | 3140 | 1.32 | 5410 | 14.1 | no binding (tested: 30 µg/mL)
